Measured values reported in US20050250700A1 (BRACCO SUISSE, published 2005).
Bridge positions count the residues as written; N and C are the ends. Side chains are listed from the residue outwards. Ends that are not written are not given here. I, II: the chains in the order shown. * marks the point of attachment. Biotin = O=C1N[C@H]2[C@H](CS[C@H]2CCCCC(=O)*)N1; AEEA = NCCOCCOCC(=O)O

Tests used:
[1] = molecular target: T1, KDR (VEGFR-2), full-length receptor on cells (human, UniProt P35968 20-1356); assay: cell-based or functional assay
T1 sequence (P35968 20-1356): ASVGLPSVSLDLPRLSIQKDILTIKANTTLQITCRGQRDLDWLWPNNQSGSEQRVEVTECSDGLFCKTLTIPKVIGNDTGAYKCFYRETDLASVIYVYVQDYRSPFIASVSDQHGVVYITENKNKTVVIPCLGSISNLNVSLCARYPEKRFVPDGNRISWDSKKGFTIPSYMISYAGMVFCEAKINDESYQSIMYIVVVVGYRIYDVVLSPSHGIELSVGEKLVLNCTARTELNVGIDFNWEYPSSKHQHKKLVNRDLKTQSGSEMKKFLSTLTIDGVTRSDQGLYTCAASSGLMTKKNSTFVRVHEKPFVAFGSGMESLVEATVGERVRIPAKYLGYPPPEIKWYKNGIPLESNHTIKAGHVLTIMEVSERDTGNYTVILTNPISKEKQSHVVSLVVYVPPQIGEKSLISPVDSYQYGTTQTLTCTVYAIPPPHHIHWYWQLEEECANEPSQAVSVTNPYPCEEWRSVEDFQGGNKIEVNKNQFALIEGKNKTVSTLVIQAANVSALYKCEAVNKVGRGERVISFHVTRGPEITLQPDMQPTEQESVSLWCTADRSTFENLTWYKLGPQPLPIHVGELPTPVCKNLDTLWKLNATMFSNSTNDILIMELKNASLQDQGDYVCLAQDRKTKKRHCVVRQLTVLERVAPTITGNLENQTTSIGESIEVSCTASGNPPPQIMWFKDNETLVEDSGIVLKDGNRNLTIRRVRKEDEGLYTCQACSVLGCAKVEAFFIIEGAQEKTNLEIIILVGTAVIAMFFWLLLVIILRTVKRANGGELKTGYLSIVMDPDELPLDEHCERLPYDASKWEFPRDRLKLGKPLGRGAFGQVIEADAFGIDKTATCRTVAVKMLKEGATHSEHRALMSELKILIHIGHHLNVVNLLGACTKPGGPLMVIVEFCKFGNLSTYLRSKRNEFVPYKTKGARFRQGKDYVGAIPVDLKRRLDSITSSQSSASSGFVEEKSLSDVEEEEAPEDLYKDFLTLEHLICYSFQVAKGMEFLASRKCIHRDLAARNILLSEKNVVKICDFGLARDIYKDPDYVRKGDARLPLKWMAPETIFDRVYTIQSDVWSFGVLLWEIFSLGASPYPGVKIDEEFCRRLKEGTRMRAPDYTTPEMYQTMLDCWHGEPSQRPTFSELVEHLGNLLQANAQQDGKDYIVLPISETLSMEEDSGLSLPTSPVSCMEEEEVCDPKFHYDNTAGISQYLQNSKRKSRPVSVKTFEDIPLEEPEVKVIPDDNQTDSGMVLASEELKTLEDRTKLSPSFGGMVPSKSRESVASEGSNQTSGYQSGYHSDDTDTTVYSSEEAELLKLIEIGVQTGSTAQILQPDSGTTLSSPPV

[2] = molecular target: T2, chimeric fusion of Ig Fc region with human KDR (human, UniProt P35968 20-764); assay: BIAcore steady state, KD1, KDR-Fc 1600 RU
T2 construct: bought, carrier-free; also called KDR-Fc; KDR Fc fusion; not shown: Ig Fc region
T2 sequence (P35968 20-764, change not shown): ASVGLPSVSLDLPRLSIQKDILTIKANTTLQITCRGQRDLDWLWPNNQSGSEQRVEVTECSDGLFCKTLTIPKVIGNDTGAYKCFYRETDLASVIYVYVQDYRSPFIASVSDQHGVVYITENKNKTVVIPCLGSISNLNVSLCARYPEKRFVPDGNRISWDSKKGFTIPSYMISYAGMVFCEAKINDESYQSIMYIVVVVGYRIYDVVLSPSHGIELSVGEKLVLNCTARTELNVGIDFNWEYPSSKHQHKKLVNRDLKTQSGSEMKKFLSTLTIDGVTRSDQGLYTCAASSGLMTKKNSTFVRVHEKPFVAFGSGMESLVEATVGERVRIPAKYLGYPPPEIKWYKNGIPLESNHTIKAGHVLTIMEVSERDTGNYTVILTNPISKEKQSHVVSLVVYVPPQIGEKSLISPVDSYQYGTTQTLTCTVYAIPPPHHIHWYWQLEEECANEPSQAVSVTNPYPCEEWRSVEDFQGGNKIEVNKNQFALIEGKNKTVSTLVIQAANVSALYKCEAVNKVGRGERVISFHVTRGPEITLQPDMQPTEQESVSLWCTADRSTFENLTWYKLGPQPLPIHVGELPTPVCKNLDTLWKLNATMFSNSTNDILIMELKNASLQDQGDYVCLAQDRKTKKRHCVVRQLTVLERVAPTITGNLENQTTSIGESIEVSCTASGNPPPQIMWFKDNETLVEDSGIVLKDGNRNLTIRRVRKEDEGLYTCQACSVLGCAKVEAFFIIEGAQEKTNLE

[3] = molecular target: T2, chimeric fusion of Ig Fc region with …; assay: BIAcore steady state, KD1, KDR-Fc 3000 RU
Method: (§1) The heterodimer was tested for binding to KDR-Fc using Biacore, and an affinity constant was determined as follows.
(§2) All samples were injected in duplicate. […] Following a 10 minute dissociation, any remaining peptide was stripped from the KDR surface with a quickinject of 50 mM NaOH+1 M NaCl for 12 s at 75 μL/min. Sensorgrams were analyzed using BIAevaluation software 3.1 and a hyperbolic double rectangular regression equation in SigmaPlot 6.0.

[4] = molecular target: T2, chimeric fusion of Ig Fc region with …; assay: BIAcore steady state, KD1, KDR-Fc 6000 RU
Method: as §1, §2

[5] = molecular target: T2, chimeric fusion of Ig Fc region with …; assay: BIAcore steady state, KDAV, KDR-Fc 1600 RU
Method: as §1, §2

[6] = molecular target: T2, chimeric fusion of Ig Fc region with …; assay: BIAcore steady state, KDAV, KDR-Fc 3000 RU
Method: as §1, §2

[7] = molecular target: T2, chimeric fusion of Ig Fc region with …; assay: BIAcore steady state, KDAV, KDR-Fc 6000 RU
Method: as §1, §2

[8] = molecular target: T2, chimeric fusion of Ig Fc region with …; assay: BIAcore steady state at the higher immobilization densities
Method: as §2

[9] = molecular target: T1, KDR (VEGFR-2), full-length receptor on …; assay: 3.33 nM peptide mix/neutravidin-HRP complex on 293H cells
Method: Peptide stock solutions were stored at −20C, whereas the Neutravidin HRP stock solution was stored at −80C. […] Fresh peptide/neutravidin HRP complexes were prepared for each experiment.
(§3) After incubation at room temperature, plates were transferred to 4C for another half-hour incubation. Subsequently, cells were washed five times with ice-cold M199 media and once with ice-cold PBS (in that order). After the final wash, 100 μL of ice cold TMB solution (KPL, Gaithersburg, Md.) was added to each well and each plate was incubated for 30 minutes at 37C in an air incubator.

[10] = molecular target: T1, KDR (VEGFR-2), full-length receptor on …; assay: competitor 125I-VEGF (300 pM) on KDR-transfected 293H cells; peptide 30 µM
Method: (§4) Preparation of 30 μM and 0.3 μM peptide solution in 300 pM ¹²⁵I-labeled VEGF: For each 96 well plate, 10 mL of 300 pM ¹²⁵I-labeled VEGF in M199 medium was prepared at 4° C. Each peptide solution (3 mM, prepared as described above) was diluted 1:100 and 1:10000 in 300 μl of M199 media with 300 pM ¹²⁵I-labeled VEGF to prepare 30 μM and 0.3 μM peptide solutions containing 300 pM of ¹²⁵I-labeled VEGF. Once prepared, the solutions were kept on ice until ready to use. The dilution of peptides in M199 media containing 300 pM ¹²⁵I-labeled VEGF was done freshly for each experiment.
(§5) To calculate the specific binding to KDR, the binding of ¹²⁵I-labeled VEGF to mock-transfected cells was subtracted from KDR-transfected cells.

[11] = molecular target: T1, KDR (VEGFR-2), full-length receptor on …; assay: competitor 125I-VEGF (300 pM) on KDR-transfected 293H cells; peptide 0.3 µM
Method: as §4, §5

[12] = molecular target: T2, chimeric fusion of Ig Fc region with …; assay: SPR; form of KDR not stated there
[13] = molecular target: T1, KDR (VEGFR-2), full-length receptor on …; assay: saturation binding of peptide/neutravidin-HRP complex, KDR- minus mock-transfected 293H cells
Method: as §3, with “4° C.” for “4C”, “5” for “five”, “μl” for “μL”, “cat. # 50-76-00)” for “Gaithersburg, Md.)”, “37° C.” for “37C”
Therefore, absorbance on the Y-axis of FIG. 1 is differential absorbance (KDR minus mock) and not the absolute absorbance.

## VCWEDSWGGEVCFRYDPGGGK (disulfide 2-12 (inferred)) [SEQ ID NO:337, monomeric free peptide]
[1]
  IC50, receptor activation assay: 1000 nM

B1: dimer 6 (D6) (peptide)
peptide 1: GDSRVCWEDSWGGEVCFRYDPGGGK
peptide 2: AGPTWCEDDWYYCWLFGTGGGK
modifications: disulfide I:6-I:16, II:6-II:13 (inferred); also: heterodimer joined by glutaric acid linkage
[1]
  IC50, VEGF-induced migration of HUVECs: ~12.5 nM
  IC50, VEGF-induced migration of HUVECs, with 100 nM Adjunct A: ~2.5 nM
[2]
  Kd: 46 nM
[3]
  Kd: 25.5 nM
[4]
  Kd: 17 nM
[5]
  Kd: 1.5 nM
[6]
  Kd: 0.665 nM
[7]
  Kd: 0.662 nM
[8]
  Kd: ~0.6 nM

B2: tetrameric neutravidin-HRP complex of SEQ ID NO:294 and SEQ ID NO:264, ratio 3:1 (other)
peptide 1: Ac-GDSRVCWEDSWGGEVCFRYDPGGGK([AEEA-AEEA-Biotin])-NH2
peptide 2: Ac-AGPKWCEEDWYYCMITGTGGGK([AEEA-AEEA-Biotin])-NH2
modifications: disulfide I:6-I:16, II:6-II:13 (inferred); also: tetrameric neutravidin-HRP complex, chain ratio 3:1
notes: nominal composition
[9]
  binding result: binds

B3: tetrameric neutravidin-HRP complex of SEQ ID NO:294 and SEQ ID NO:264, ratio 2:2 (other)
peptide 1: Ac-GDSRVCWEDSWGGEVCFRYDPGGGK([AEEA-AEEA-Biotin])-NH2
peptide 2: Ac-AGPKWCEEDWYYCMITGTGGGK([AEEA-AEEA-Biotin])-NH2
modifications: disulfide I:6-I:16, II:6-II:13 (inferred); also: tetrameric neutravidin-HRP complex, chain ratio 2:2
notes: nominal composition
[9]
  binding result: binds

B4: tetrameric neutravidin-HRP complex of SEQ ID NO:294 and SEQ ID NO:264, ratio 1:3 (other)
peptide 1: Ac-GDSRVCWEDSWGGEVCFRYDPGGGK([AEEA-AEEA-Biotin])-NH2
peptide 2: Ac-AGPKWCEEDWYYCMITGTGGGK([AEEA-AEEA-Biotin])-NH2
modifications: disulfide I:6-I:16, II:6-II:13 (inferred); also: tetrameric neutravidin-HRP complex, chain ratio 1:3
notes: nominal composition
[9]
  binding result: binds

## Ac-GDSRVCWEDSWGGEVCFRYDP (disulfide 6-16 (inferred)) [acetylated SEQ ID NO:294 without the modified C-terminus (SEQ ID NO:374)]
[10]
  % inhibition of 125I-labeled VEGF binding: 96.3%
[11]
  % inhibition of 125I-labeled VEGF binding: 52.3%

B5: dimer 28 (D28) (peptide)
peptide 1: AQEPEGYAYWEVITLYHEEDGDGGK
peptide 2: AQAFPRFGGDDYWIQQYLRYTDGGK
modifications: also: tail-to-tail heterodimer, linkage not given here
[12]
  Kd: 11 nM

B6: tetrameric complex of biotinylated SEQ ID NO:294 (JJ spacer) with neutravidin-HRP (other)
peptide: Ac-GDSRVCWEDSWGGEVCFRYDPGGGK([AEEA-AEEA-Biotin])-NH2
modifications: disulfide 6-16 (inferred); also: tetrameric complex with neutravidin-HRP
notes: peptides held on neutravidin-HRP (Pierce 31001)
[13]
  Kd: 10 nM
